These results are taken from article PMC6783653, “TIP30 counteracts cardiac hypertrophy and failure by inhibiting translational elongation” (EMBO Molecular Medicine, 2019).

For this experiment, the target named is T1, GST-tagged eEF1A1 (rat, UniProt P62630 1-462).
T1 construct: eEF1A1, rat, open reading frame BC128723.1; Cloned into pGEX-4T1, which should place GST at the N-terminus (surmise); also called GST-eEF1A1
T1 sequence (looked up): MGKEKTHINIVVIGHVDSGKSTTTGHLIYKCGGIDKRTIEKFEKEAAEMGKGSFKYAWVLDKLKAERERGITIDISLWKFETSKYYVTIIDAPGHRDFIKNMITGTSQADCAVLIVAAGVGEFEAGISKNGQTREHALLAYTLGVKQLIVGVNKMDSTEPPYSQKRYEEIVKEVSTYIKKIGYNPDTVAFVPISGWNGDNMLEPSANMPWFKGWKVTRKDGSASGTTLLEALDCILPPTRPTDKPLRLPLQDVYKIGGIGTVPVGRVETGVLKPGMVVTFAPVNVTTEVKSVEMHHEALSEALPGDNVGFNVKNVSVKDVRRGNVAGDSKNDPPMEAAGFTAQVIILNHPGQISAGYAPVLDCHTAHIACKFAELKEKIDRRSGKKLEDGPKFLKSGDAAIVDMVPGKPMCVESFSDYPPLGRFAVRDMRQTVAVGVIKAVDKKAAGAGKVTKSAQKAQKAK
Kind of experiment: pull-down; GST or GST-eEF1A1 on glutathione agarose beads, purified eEF1B2-His; purified TIP30-His added in increasing amounts. The note with it: both partners purified.

B1: purified eEF1B2-His (natural protein, rat, UniProt A6IPG1 1-225, looked up)
chain: MGFGDLKTPAGLQVLNDYLADKSYIEGYVPSQADVAVFEAISGPPPADLCHALRWYNHIKSYEKEKASLPGVKKSLGKYGPVSVADTTGSGAADAKDDDDIDLFGSDDEEESEDAKRLREERLAQYESKKAKKPAVVAKSSILLDVKPWDDETDMTKLEECVRSIQADGLVWGSSKLVPVGYGIKKLQIQCVVEDDKVGTDMLEEQITAFEDYVQSMDVAAFNKI
notes: eEF1B2, rat, open reading frame NM_001108799.2
Turning to B1, the binding result is “binds”.
